Source: the supplement of paper PMC9170038

Test system: MS2 coat protein
Assay: apparent KD of MS2 coat protein; higher = weaker reporter binding
Conditions: Eterna round: R107
Experimental: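 RNA-MaP round R107: designed RNA switches with theophylline, tryptophan, arginine or FMN aptamers are transcribed on-chip within common flanks. They are titrated with SNAP-549-labelled MS2 coat protein in RNA-MaP buffer (100 mM Tris pH 7.5, 80 mM KCl, 4 mM MgCl2), without ligand or with the indicated ligand. Median apparent KD per design.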

[1] = input ligand: theophylline 20 uM
[2] = input ligand: tryptophan 2.4 mM
[3] = input ligand: theophylline 2 mM

Row | Sequence | apparent KD of MS2 coat protein (input ligand: arginine 13.2 mM) | apparent KD of MS2 coat protein [1] | apparent KD of MS2 coat protein [2] | apparent KD of MS2 coat protein [3] | apparent KD of MS2 coat protein (input ligand: none)
1 | UAAAUAAUCUGGGUGUAGGUAAUAACAGAUACCAGCCAGAUAACUGGCCCUUGGCAGCUGAUAACAUGAGGAUCACCCAUGUAAA [Mat - Same State Theophlline A - Mod of Eli - D20] | 47 nM | 114 nM | 55.6 nM |  | 
2 | AUACCUAAUGUUACGUUUUCCUUUUCAGAUACCAGACUUUACGUUGUCCCUUGGCAGCUGUAUUACAUGAGGAUCACCCAUGUUG [JR_SSTheophyA_Sub008] | 19.8 nM | 26.7 nM | 20.4 nM |  | 
3 | AGAAUAUAGUCGGCCGCCACUCUACAUACAUGAGGAUCACCCAUGUUUACAUAGUGAAUAUACAUGAGGACCGGGACAUAGGCAU [JR_SSTryptoB_Sub020] | 21.6 nM | 26.1 nM |  | 23.7 nM | 
4 | GCUGGACUUUCGGCCGCCACUGAGAGAGUCGUGUGAACAUGAGGAUCACCCAUGUAAUAUAUAUACAGGACCGGGAGGGUUGUGC [4.P] | 11.2 nM | 14.7 nM |  | 11.6 nM | 
5 | GAGGAAACUCACAUGAGGAUCACCCAUGUACGAGGACCGGUACGGCCGCCACUCGAAACCAUGGGCGGUUGUACAUGGAAACAUG [Design 2] | 21.4 nM | 33.3 nM |  | 34.9 nM | 
6 | GCACCAGGUACGGAUACCAGACGCUGCCGAUUGGGUGGACAUGAGGAUCACCCAUGUAAUGUCCCUUGGCAGCCGUACCUGGUGC [#17 Exclusion-TheophyllineB] | 13.5 nM | 38.8 nM | 17.8 nM | 200 nM | 13.8 nM
7 | AUAAGUAAUGUUUCGUGUUUUAUUACAGAUACCAGACUAUACGUUGUCCCUUGGCAGCUGGAUUACAUGAGGAUCACCCAUGUUG [JR_ExcTheophyA_Sub003] | 17.6 nM | 26.5 nM | 18.5 nM |  | 
8 | AACACAUGAGGAUCACCCAUGUUCUCGUGUCGAGGACCGGUACGGCCGCCACUCGGUUCUCGCGAGGAUGGUCAAAGACUAUCCA [Omei Trp A SS B v7] | 40.3 nM | 57.4 nM |  | 50.4 nM | 
9 | AAAUAAAUACAUGAGGAUCACCCAUGUGAAGGAGCGCGCGUUAGCGCAGGUAGGUCGCACAUGAAAGGGAAGCGAAAGAAAUAAU [MAT - Exclusion Arginine A - Mod of Eli - D16] | 24.9 nM | 28.6 nM | 22.2 nM | 24.3 nM | 19 nM
10 | GGAGGUACCCGAAGGAGCGACAUGAGGAUCACCCAUGUCUCCCGUUAUGGGAGUUCUUUAGGUCAGGUAGGUCGCGGGUACCUCC [#1 Exclusion - Arginine B Attempt #2 (Inspired by Omei)] | 79.3 nM | 114 nM | 97 nM | 202 nM | 97.7 nM
11 | UGACAUUGCUCAGAUACCAGACUUGAGGAUCACCCAAGUGCCAACAAGUAUAUAAUAAAAGUCCCUUGGCAGCUGAGCAAUGUCU [TheoBX 18#MS2Left #AlternativeMS2 #Theo2] | 42.7 nM | 28.6 nM | 17.5 nM | 137 nM | 28 nM
12 | GGGUCGGGCGCGGCCGCCACUGCGGUGGUGUGACAUGAGGAUCACCCAUGUUGUCAUGCGGCCCUUAGGACCGGGCGCCCGGCCC [#1 Exclusion - Tryptophan B Attempt #11 (HarryS)] | 19.3 nM | 67.4 nM | 38.4 nM | 70.1 nM | 42.5 nM
13 | UUAGAUAUGACGGAUACCAGCGUGUUGUAGAACAUGAGGAUCACCCAUGUAGUGAUCAUGCGCCCUUGGCAGCUGGUAUGUUUGG [7.U] | 178 nM | 386 nM | 566 nM |  | 
14 | ACAUGAGGAUCACCCAUGUUCCUCGCCGAUACCAGUGAAGAAGAACGCCCUUGGCAGCGGAAAGAAUAUAUUGGAGAUGAUAUAU [6.U] | 111 nM | 252 nM | 225 nM |  | 
15 | AGACAUGUAAGAUAAUUGACUUUUACAGAUACCAGACUGUCUAAUGUCCCUUGGCAGCUGCAUUACAUGAGGAUCACCCAUGUUA [JR_ExcTheophyA_Sub011] | 15.9 nM | 20.3 nM | 17.5 nM |  | 
16 | AUUCAUGGAAACAUGACAUACAUAACCGGUCGAGGACCGGUACGGCCGCCACUCGGUUGGUGGCACAUGAGGAUCACCCAUGUUA [SS Tryp A #10] | 21.7 nM | 39.3 nM |  | 28.5 nM | 
17 | CAUGAAGUAACUGAUACCAGUGUACUGACAUGAGGAUCACCCAUGUUGGGUUUUGUUGUACACCCUUGGCAGCAGAAUCUUUAUG [AstrosExyTheB#4] | 50 nM | 70.8 nM | 58.5 nM |  | 
18 | UAACAUGAGGAUCACCCAUGUUUAGAUGAACGAGGACCGGUACGGCCGCCACUCGAUAAGUGGAAGAAACGAGGGAUUGUAUGAU [Same State Trp A GF2] | 14.1 nM | 15.1 nM | 18.3 nM | 18.8 nM | 12.7 nM
19 | UAUUUGGUGCGCGAGCGUUGGAUAAUUGAUACCAGUGAAGAAGAGCGCCCUUGGCAGCGAAUCCUAACAUGAGGAUCACCCAUGU [5.S] | 38.2 nM | 63.2 nM | 41.4 nM |  | 

Row | Sequence | apparent KD of MS2 coat protein (input ligand: arginine 13.2 mM) | apparent KD of MS2 coat protein [1] | apparent KD of MS2 coat protein [2] | apparent KD of MS2 coat protein [3] | apparent KD of MS2 coat protein (input ligand: none)
20 | CCAUAAGUAACUGAUACCAGUGUACUGACAUGAGGAUCACCCAUGUUGGGUUUUGUUGUACACCCUUGGCAGCAGAAUCUUGUGG [AstrosExyTheB#16] | 43.9 nM | 70.1 nM | 54.3 nM |  | 
21 | AGAUUCGACACGGCCGCCACUUGGAGUGGCUGCUAGCAUGUUACACAUGAGGAUCACCCAUGUCUAAGGACCGGGUGUUGAGUCU [XTryp B #24] | 30.7 nM | 79.2 nM |  | 63.5 nM | 
22 | AAUAACAUGAGGAUCACCCAUGUAACCGAAGGAGCGGCAAUAAAGCCAGGUAGGUCGCGGAAUAACAUGAGGAUCACCCAUGUAA [Exclusion Arginine A] | 55.5 nM | 112 nM | 94.7 nM | 125 nM | 138 nM
23 | CGGUAUGGGACGGCCGCCACUAUUAUGUAACAAAAUAAACAUGAGGAUCACCCAUGUACAUGGGAUAGGACCGGGUCCUAUAGCG [#23 Same State - Tryptophan B] | 19.8 nM | 70.9 nM | 17.7 nM | 133 nM | 55.7 nM
24 | AGAUGUAGCGGAAGGAGCGACAUGAGGAUCACCCAUGUCUCCCGUUAUGGGAGUUCCUUAGGUCAGGUAGGUCGCCGUUACGUCA [Omei Arg B SS B v1] | 105 nM | 143 nM | 105 nM | 226 nM | 146 nM
25 | ACAUGAGGAUCACCCAUGUGCAUGAUGAUCCGAGGACCGGUACGGCCGCCACUCGUCAUGAUGAUCUUUCAUGUUUGUCGCGCGC [Flamini II] | 62.6 nM | 326 nM |  | 422 nM | 
26 | AGCAACAAGUCGGCCGCCACUCAUAUUACAUGAGGAUCACCCAUGUUUACAUCAAGGUCAUAAUAGAGGACCGGGACAGUUGCAU [JR_SSTryptoB_Sub017] | 24.5 nM | 39.3 nM |  | 41.5 nM | 
27 | CAAAAUUUAACGGCCGCCACUUACUCAUGAGGUAACAACAUGAGGAUCACCCAUGUUUGAGGAUCAAGGACCGGGUUAAAUUUUG [AstrosSSTry#20] | 26.6 nM | 33.9 nM |  | 30.7 nM | 
28 | UCGUUUUAGUCGGCCGCCACUGAACUCAUGUUCAACAUGAGGAUCACCCAUGUACCUUAUUUUAACAGGACCGGGACGUAAUAGA [JR_ExcTryptoB_Sub001] | 165 nM | 264 nM |  | 258 nM | 
29 | GCCGCGGCCGCGAUACACAUGGGUAUGUAACGAGGACCGGUACGGCCGCCACUCGAGAUAAUGUACAUGAGGAUCACCCAUGUAC [Exclusion Tryp A GF12] | 10.3 nM | 15.1 nM |  | 12.8 nM | 
30 | AGCGUUCAGCUUAUACUGGACAAUGGGUGACGAGGACCGGUACGGCCGCCACUCGGGCGCCCGGUUACAUGAGGAUCACCCAUGU [Vedizaus] | 52.2 nM | 213 nM | 20.5 nM | 212 nM | 195 nM
31 | AGAUCUUUCGAAAGAAGGAUCUUGGCUGAUACCAGAGACGAAAGUCUCCCUUGGCAGCAGUGCCAACAUGAGGAUCACCCAUGUA [Theophylline A 13] | 35 nM | 49.9 nM | 42.9 nM |  | 
32 | CAGCCUGGUUGGUAAAUCCCUCAUCGUGAUACCAGUCGAGUGAUCGACCCUUGGCAGCACAUGAGGAUCACCCAUGUGCUCGUAU [Diorqu] | 18.6 nM | 31.1 nM | 17.9 nM |  | 
33 | AAAGGAAGGUAAAAUAAAACUACAUGUGAAGGAGCGCGCGAAAGCGCAGGUAGGUCGCACAUGAGGAUCACCCAUGUCCUUCCAA [MAT - Exclusion Arginine A - Mod of Eli - D4] | 112 nM | 181 nM | 96.8 nM | 129 nM | 104 nM
34 | CCCUCGUCAACGGCCGCCACUGUGAUUCACUAAGAUAAUAUUGCACAUGAGGAUCACCCAUGUCUCAGGACCGGGUUGGUGUGUC [theeternabot_sameState_MS2_Trp_B_38] | 82 nM | 128 nM |  | 131 nM | 
35 | GCACCAGGUACGGAUACCAGCUGCCACGGUUACAUGAGGAUCACCCAUGUGAUAAGGUGUAGCCCUUGGCAGCUGUACCUGGUGC [SSThB NP+V+V2 #7 +-Same Structure] | 96.9 nM | 500 nM | 258 nM | 411 nM | 142 nM
36 | GGUUACUCUACGGCCGCCACUGAACAUGAGGAUCACCCAUGUAAUGUUCAGACGUCUUUAGACGACAGGACCGGGUAGUGUAACC [Tryptophan B 5] | 119 nM | 208 nM |  | 232 nM | 
37 | AUACAUGAGGAUCACCCAUGUCCUCGUGAUCGAGGACCGGUACGGCCGCCACUCGGUCCUCGCGAGGUGGAGUCAAAGACUCCAA [Omei Trp A SS A v5] | 109 nM | 166 nM |  | 137 nM | 
